B3: L-selectin on rat thoracic duct lymphocytes (receptor, UniProt P30836 39-372, looked up)
chain: WTYHYSERSMNWENARKFCKHNYTDLVAIQNKREIEYLEKTLPKNPTYYWIGIRKIGKTWTWVGTNKTLTKEAENWGTGEPNNKKSKEDCVEIYIKRERDSGKWNDDACHKRKAALCYTASCQPESCNRHGECVETINNNTCICDPGYYGPQCQYVIQCEPLKAPELGTMNCIHPLGDFSFQSQCAFNCSEGSELLGNAKTECGASGNWTYLEPICQVIQCMPLAAPDLGTMECSHPLANFSFTSACTFTCSEETDLIGERKTVCRSSGSWSSPSPICQKTKRSFSKIKEGDYNPLFIPVAVMVTAFSGLAFIIWLARRLKKGKKSQERMDDPY
notes: whole, on cells; also called rat L-selectin; TDL L-selectin

For experiment [1], the target named is L-selectin on human lymphocytes or neutrophils (human) (UniProt P14151). In words: Stamper-Woodruff assay, human lymphocytes treated with LAM1-3, on immunoprecipitated KG1a CD44.
The target of experiment [2] is L-selectin on lymphocytes (human or rat not given). In words: Stamper-Woodruff assay, equimolar amounts of KG1a CD44 and PSGL-1, 80 rpm.
The target in experiment [3] is L-selectin on rat thoracic duct lymphocytes (rat) (UniProt P30836). The experiment can be described thus: cell-based or functional assay.
Experiment [4] has as its target L-selectin on human lymphocytes or neutrophils (human) (UniProt P14151). The experiment can be described thus: cell-based or functional assay.
Experiment [5] addresses L-selectin on lymphocytes (human or rat not given). The experiment can be described thus: cell-based or functional assay.
Experiment [6] has the same target. In words: blot rolling assay, lymphocytes over blotted KG1a membrane protein, 2.3 dynes/cm^2.
Experiment [7] shares this target. The experiment can be described thus: Stamper-Woodruff assay, lymphocytes on immunoprecipitate spotted on glass.
For experiment [8], the target named is PSGL-1 from KG1a cells (human) (UniProt Q14242). The experiment can be described thus: fixed KG1a cells treated with PL-1 (10 µg/ml), rat lymphocyte (L-selectin) rolling at 4.4 dynes/cm^2.
Experiment [9] has as its target PSGL-1 from HL60 cells (human) (UniProt Q14242). The experiment can be described thus: fixed HL60 cells treated with PL-1 (10 µg/ml), rat lymphocyte (L-selectin) rolling at 4.4 dynes/cm^2.
For experiment [10], the target named is B3. In words: Stamper-Woodruff assay, 80 rpm, rat thoracic duct lymphocytes. As to the method: (§1) Lymphocytes (10^7/ml RPMI-1640 without NaBicarbonate/5'/oFBS) were overlayed onto these fixed immunoprecipitates and incubated on an orbital shaker at 80 rpm for 30 min. at 4° C. The number of adherent lymphocytes was quantified by light microscopy using an ocular grid under 100× magnification (a minimum of 5 fields/slide, 2 slides/experiment, and 3 separate experiments). Data were presented as the mean number of bound lymphocytes±standard deviation. KG1a CD34 and L-selectin control immunoprecipitates were also tested in this manner. To verify the dependence for sialic acid, glutaraldehyde-fixed spots were treated with *Vibrio cholerae* neuraminidase (0.1U/ml RPMI-1640 without NaBicarbonate/2% FBS for 1 hr at 37° C.). In addition, to verify that cellular adhesion was dependent on L-selectin, all assays included negative controls, in which lymphocytes were treated with PMA (50 ng/ml for 30 min at 37° C.) or functional blocking antibodies (anti-rat-L-selectin moAb HRL-1 or anti-human L-selectin moAb LAM1-3;10 µg/ml), or lymphocyte suspensions contained 5 mM EDTA.
(§2) [2]The average number of bound lymphocytes from 5 fields of view at 100x mag. from duplicate slides and a minimum of three experiments. […]

Experiment [11] concerns the target T1, human E-selectin on CHO-E cells (human, UniProt P16581 22-610).
T1 construct: whole, on cells; also called CD62E
T1 sequence (looked up): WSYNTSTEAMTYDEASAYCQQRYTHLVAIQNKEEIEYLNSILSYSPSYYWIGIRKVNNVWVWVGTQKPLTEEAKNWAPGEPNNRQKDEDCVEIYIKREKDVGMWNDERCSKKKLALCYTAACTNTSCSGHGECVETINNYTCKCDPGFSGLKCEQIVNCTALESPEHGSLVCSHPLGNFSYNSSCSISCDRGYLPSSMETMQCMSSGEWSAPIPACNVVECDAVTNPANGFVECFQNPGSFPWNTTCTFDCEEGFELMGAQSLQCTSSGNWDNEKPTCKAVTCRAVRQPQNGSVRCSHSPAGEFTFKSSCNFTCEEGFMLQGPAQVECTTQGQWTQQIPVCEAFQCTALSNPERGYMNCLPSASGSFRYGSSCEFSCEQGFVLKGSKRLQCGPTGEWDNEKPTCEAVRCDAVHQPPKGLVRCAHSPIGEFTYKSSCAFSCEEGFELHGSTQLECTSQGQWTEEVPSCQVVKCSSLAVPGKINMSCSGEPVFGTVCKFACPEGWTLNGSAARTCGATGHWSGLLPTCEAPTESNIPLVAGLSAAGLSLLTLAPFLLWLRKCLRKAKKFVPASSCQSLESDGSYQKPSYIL
In words: blot rolling assay, CHO-E cells over blotted HL60 membrane protein. On the procedure: The blot rolling assay was performed as previously described (Dimitroff et al., 2000). Briefly, CHO-E, CHO-P or CHO-Mock transfectants were isolated as described above, washed twice in HBSS and suspended at 10^7/ml in HBSS/10 mM HEPES/2mMCaCl_2 (H/H/Ca++)/10% glycerol. […] The blots were then placed in the parallel-plate flow chamber, and CHO transfectants (2×10^6/ml) were perfused into the chamber. After allowing the cells to come in contact with the blotting membrane, the flow rate was adjusted to exert a shear stress of 3.8 dynes/cm^2. The viscosity of 10% glycerol adhesion assay medium was considered in the calculation of shear stress values. The number of cells rolling on and between each immunostained banding region was quantified under 100× magnification within each field of view on the video monitor using molecular weight markers (Kaleidoscope Molecular Weight Markers, Bio-Rad Lab.; See Blue® from Novex, Inc.) as guides to help align and visualize the apparent molecular weights of the proteins of interest. A minimum of 3 experiments was performed and results were expressed as the mean±SD of cell rolling/field at 100× magnification. […]

For experiment [12], the target named is T2, CD34 immunoprecipitated from KG1a cells (human, UniProt P28906 32-385).
T2 construct: mature; also called KG1a CD34; CD34 (Molecular Control)
T2 sequence (looked up): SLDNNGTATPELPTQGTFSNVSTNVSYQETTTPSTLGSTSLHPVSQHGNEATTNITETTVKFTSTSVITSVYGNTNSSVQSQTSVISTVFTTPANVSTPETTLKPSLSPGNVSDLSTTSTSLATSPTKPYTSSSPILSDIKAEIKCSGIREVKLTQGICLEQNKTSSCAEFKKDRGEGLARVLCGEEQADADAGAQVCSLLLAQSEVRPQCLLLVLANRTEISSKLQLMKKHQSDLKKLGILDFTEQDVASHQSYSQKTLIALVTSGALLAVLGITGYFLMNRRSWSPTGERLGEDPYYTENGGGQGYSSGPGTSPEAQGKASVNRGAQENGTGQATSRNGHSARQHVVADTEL
The experiment can be described thus: Stamper-Woodruff assay, 80 rpm, rat thoracic duct lymphocytes. On the procedure:
as §1, §2

This note sets out measurements from US7875585 (dated 2011).

In experiment [1], “anti-human L-selectin monoclonal antibody LAM1-3” had a bound cells/field left after the antibody (bound cells/field) of less than 10.
On to “hematopoietic cell E-selectin/L-selectin ligand (HCELL), the CD44 glycoform of KG1a cells (from UniProt P16070 21-742)”, for which the fold lymphocyte binding compared with PSGL-1 in experiment [2] is less than 10 fold. Besides, in experiment [3], the % Control Mean Lymphocyte Binding; KG1a Cells + mocarhagin (% of untreated control) was determined as 110, the % Control Mean Lymphocyte Binding; KG1a Cells +Neur. + DMSO (% of untreated control) was 103, the % Control Mean Lymphocyte Binding; KG1a Cells +Neur. + Tunicamycin (15 µg/ml) (% of untreated control) came out at 34.3 and the % Control Mean Lymphocyte Binding; KG1a Cells +OSGE (60 µg/ml) (% of untreated control) is 104. The % Control Mean Lymphocyte Binding; KG1a Cells +neuraminidase (Neur.) (0.1 U/ml) (% of untreated control) in experiment [3] was 0.3. For the same molecule, the L-selectin-mediated neutrophil rolling on KG1a cells against HL60 cells, parallel-plate flow chamber in experiment [4] came out at 4 fold. In experiment [5], this molecule had a L-selectin-mediated lymphocyte adherence to KG1a cells against HL60 cells at 80 rpm, Stamper-Woodruff assay of 10 fold and a frequency of rolling lymphocytes on KG1a cells against HL60 cells, parallel-plate flow chamber of less than 5 fold. The same molecule yielded a fold L-selectin ligand activity compared to other bands in [6] of less than 6 fold. Besides, the bound cells/field (bound cells/field) in experiment [7] came out at 362.
Turning to anti-PSGL-1 monoclonal antibody PL-1, the figures for the % Control Mean Lymphocyte Binding (% of untreated control) in experiment [8] and in [9] were 105 and 62.5, respectively.

B1: L-selectin immunoprecipitated from KG1a cells (receptor, human, UniProt P14151 39-372, looked up)
chain: WTYHYSEKPMNWQRARRFCRDNYTDLVAIQNKAEIEYLEKTLPFSRSYYWIGIRKIGGIWTWVGTNKSLTEEAENWGDGEPNNKKNKEDCVEIYIKRNKDAGKWNDDACHKLKAALCYTASCQPWSCSGHGECVEIINNYTCNCDVGYYGPQCQFVIQCEPLEAPELGTMDCTHPLGNFSFSSQCAFSCSEGTNLTGIEETTCGPFGNWSSPEPTCQVIQCEPLSAPDLGIMNCSHPLASFSFTSACTFICSEGTELIGKKKTICESSGIWSNPSPICQKLDKSFSMIKEGDYNPLFIPVAVMVTAFSGLAFIIWLARRLKKGKKSKRSMNDPY
notes: mature; also called L-selectin (Molecular Control)
Consider B1, for which the binding result in experiment [10] was “no binding”.

B2: PSGL-1 from HL60 cells (ligand, human, UniProt Q14242 42-412, looked up)
chain: QATEYEYLDYDFLPETEPPEMLRNSTDTTPLTGPGTPESTTVEPAARRSTGLDAGGAVTELTTELANMGNLSTDSAAMEIQTTQPAATEAQTTQPVPTEAQTTPLAATEAQTTRLTATEAQTTPLAATEAQTTPPAATEAQTTQPTGLEAQTTAPAAMEAQTTAPAAMEAQTTPPAAMEAQTTQTTAMEAQTTAPEATEAQTTQPTATEAQTTPLAAMEALSTEPSATEALSMEPTTKRGLFIPFSVSSVTHKGIPMAASNLSVNYPVGAPDHISVKQCLLAILILALVATIFFVCTVVLAVRLSRKGHMYPVRNYSPTEMVCISSLLPDGGEGPSATANGGLSKAKSPGLTPEPREDREGDDLTLHSFLP
modifications: HECA-452-reactive glycans
notes: mature; also called HL60 PSGL-1; PSGL-1/CLA
For B2, the binding result in experiment [11] is reported as “binds”.
In the case of B3, the binding result in experiment [12] is “no binding”.
